Experimental data published in patent US20200325209A1.

What was measured:
[1] = target: human neonatal Fc receptor FcRn/β2m, soluble recombinant (human) (UniProt P55899); assay: flow cytometry, labelled FcRn on CHO-displayed HSA, pH 7.4
[2] = target: human neonatal Fc receptor FcRn/β2m, soluble recombinant (human) (UniProt P55899); assay: flow cytometry, labelled FcRn on CHO-displayed HSA, pH 5.5

mean geoMFI [1] | mean geoMFI [2] | Substance
32.7 | 305 | HSA [G572D], membrane-tethered on CHO cells (from UniProt P02768 25-609)
36.4 | 85.8 | HSA [G572N], membrane-tethered on CHO cells (from UniProt P02768 25-609)
30.6 | 216 | HSA [G572P], membrane-tethered on CHO cells (from UniProt P02768 25-609)
– | 201 | HSA [G572Q], membrane-tethered on CHO cells (from UniProt P02768 25-609)
20.7 | 58.2 | HSA [G572V], membrane-tethered on CHO cells (from UniProt P02768 25-609)
17.8 | – | HSA [Q522A], membrane-tethered on CHO cells (from UniProt P02768 25-609)
22.4 | 317 | HSA [Q522D], membrane-tethered on CHO cells (from UniProt P02768 25-609)
29.2 | 128 | HSA [Q522E], membrane-tethered on CHO cells (from UniProt P02768 25-609)
27.2 | – | HSA [Q522H], membrane-tethered on CHO cells (from UniProt P02768 25-609)
31.4 | – | HSA [Q522N], membrane-tethered on CHO cells (from UniProt P02768 25-609)
29.4 | – | HSA [Q522P], membrane-tethered on CHO cells (from UniProt P02768 25-609)
17.8 | 386 | HSA [Q522R], membrane-tethered on CHO cells (from UniProt P02768 25-609)
32.7 | 258 | HSA [Q522S], membrane-tethered on CHO cells (from UniProt P02768 25-609)
28.3 | 290 | HSA [Q522T], membrane-tethered on CHO cells (from UniProt P02768 25-609)
